From the supplement of paper PMC10567573 come the findings set out here.

A short description of this series: protein stability index of a GFP-peptide fusion (GPS, HEK-293T) (PSI 1-6); higher = more stable. The conditions noted are these: c terminus: a fixed tail appended.

± gives the standard deviation.
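Also: 24-mer peptide tiles fused after GFP, lentivirally expressed, FACS-sorted into six equal bins by GFP/DsRed ratio, decoded by Illumina sequencing, PSI is the read-weighted mean bin number.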

For QRAFSIQTPEQYYFCYKAILEFAE [PTPN9], the protein stability index turned out to be 2.16 ± 0.29 (treatment: DMSO) and 2.16 ± 0.35 (treatment: MLN4924 1 uM, 8 h).
For the sequence MDVMPGEGDLPQMEVGSGSRELSL [EID1], the protein stability index (treatment: DMSO) worked out at 4.8 ± 0.2 and the protein stability index (treatment: MLN4924 1 uM, 8 h) worked out at 5.06 ± 0.17.
Regarding GYKSNQVRGLYDFYLPREELWIYN [KLHDC2], the protein stability index is, setting by setting: (treatment: DMSO) 2.44 ± 0.16; (treatment: MLN4924 1 uM, 8 h) 1.98 ± 0.17.
On the same counts, the results for MSRMQSKEYPVVPRSTVRQKVASN [TBX5] are 4.25 ± 0.24 and 4.15 ± 0.087.
In the same order, the values of LQMAVLVEKQADTLNVIELNVQKT [STX11] are 2.59 ± 0.22 and 2.67 ± 0.26.
In the same order, the values of FSDSRSNNDDDEDEDDEDEDEDED [TAF7L] are 5.7 ± 0.19 and 5.58 ± 0.41.
On to PEARSRDATPPVSPINMEDQERIK [JUNB], for which the protein stability index amounted to 5.37 ± 0.38 (treatment: DMSO) and 5.42 ± 0.33 (treatment: MLN4924 1 uM, 8 h).
NLIYRDVKPENFLIGRPGNKTQQV [CSNK1G3]: the protein stability index runs as follows: (treatment: DMSO) 3.27 ± 0.1; (treatment: MLN4924 1 uM, 8 h) 3.25 ± 0.22.
In the same order, the values of FDLCDRTFSLKTVLMIAIQLISRM [CSNK1G3] are 2.89 ± 0.21 and 2.54 ± 0.46.
In the same order, the values of QPLEGGTPNSAGGPGAHILRRKSP [ADAMTS4] are 5.34 ± 0.43 and 5.37 ± 0.17.
In the same order, the values of HLRTHTGERPYKCSECGESFSRSS [ZNF263] are 3.16 ± 0.19 and 3.38 ± 0.55.
Take IIKMATARQETKEMARKVIEHCSN [ZER1]: the protein stability index reads like this: (treatment: DMSO) 2.94 ± 0.35; (treatment: MLN4924 1 uM, 8 h) 3.08 ± 0.13.
In the same order, the values of DQLIGQGIIVKDARLNGSVASYIL [TENT5D] are 2.3 ± 0.33 and 2.19 ± 0.45.
In turn, PSVPDNAELVLLTLGQAWQGYVSD [DFFB] showed a protein stability index (treatment: DMSO) of 2.64 ± 0.52 and a protein stability index (treatment: MLN4924 1 uM, 8 h) of 2.84 ± 0.32.
In the same order, the values of FLLVLAVVAGDTVSTGSTDNSPTS [ADAMTSL2] are 2.5 ± 0.45 and 2.28 ± 0.43.
In the same order, the values of NLIKSENYGKILVEKNEHCIENNI [R3HDM1] are 3.5 ± 0.5 and 3.49 ± 0.65.
In the case of GLPSSELDAVENQLKWASWELHSL [ZNF24], the protein stability index by setting is: (treatment: DMSO) 2.98 ± 0.15; (treatment: MLN4924 1 uM, 8 h) 3 ± 0.38.
In the same order, the values of RPRPQGRSVSEPRDQHPQPSLGDS [RTN2] are 5.04 ± 0.31 and 5.296 ± 0.046.
On the same counts, the results for HLSGSHNTLAPTCFKAKLHRKRGS [RSPH3] are 3.67 ± 0.14 and 3.77 ± 0.37.
KEGARNIRTSERVTLIVDNTRFVV [BTBD10]: the protein stability index came out at 1.95 ± 0.32 (treatment: DMSO) and 2.29 ± 0.34 (treatment: MLN4924 1 uM, 8 h).
In the same order, the values of NHVAVAARYAQQKHRIRRVLIVDW [HDAC6] are 2.34 ± 0.72 and 2.09 ± 0.27.
As to QYSSHHTAEKRKRLGELFNPYYDP [CHGB], the protein stability index reads like this: (treatment: DMSO) 3.13 ± 0.25; (treatment: MLN4924 1 uM, 8 h) 3.28 ± 0.2.
In the same order, the values of LTILPTEIETWVREHCPENRERVV [ZNF449] are 3.23 ± 0.2 and 3.42 ± 0.29.
In the same order, the values of NLLLAKGANINAFDKKDRRALHWA [ANKRD44] are 2.32 ± 0.34 and 2.5 ± 0.17.
On the same counts, the results for LALIDYLTQKRSQLVKKLNDSDHQ [VPS39] are 2.51 ± 0.14 and 2.77 ± 0.69.
In the case of FARNGALSTHNWTYWQCGQYLGVG [RSAD1], the protein stability index (treatment: DMSO) was found to be 2.63 ± 0.66 and the protein stability index (treatment: MLN4924 1 uM, 8 h) came out at 2.17 ± 0.17.
In the same order, the values of SYHDGYGEALGRDHSEHLSGSSYR [RBMY1A1] are 4 ± 0.19 and 4.12 ± 0.35.
Regarding ASAETLPAGFRVSTLGTLQPPPAP [PPFIA4], the protein stability index runs as follows: (treatment: DMSO) 3.94 ± 0.35; (treatment: MLN4924 1 uM, 8 h) 4.06 ± 0.23.
With DDMLLFDEQEKGIVTKFYQLSATG [FAN1], the protein stability index runs as follows: (treatment: DMSO) 3.57 ± 0.3; (treatment: MLN4924 1 uM, 8 h) 3.46 ± 0.2.
